The source of these data is patent US20240100176A1 (Eli Lilly, published 2024).

The target of assay [1] is T1, hexahistidine tagged human IL-4Rα ECD K22D (human, UniProt P24394 26-232).
T1 construct: not shown: hexahistidine tag
The experiment in a line: capture ELISA: Ab1 on anti-human IgG Fc, His-tagged receptor at 0.04 µg/mL, anti-His HRP. From the text:
(§1) Example 2d. […] Briefly, thirty surface amino acid residue substitutions were introduced individually into hexahistidine tagged human IL-4Rα extra cellular domain (ECD) as follows: K2D, E6R, K22D, P26R, T31R, F41A, L42G, L43G, E45R, E52R, G56R, D66R, A71R, Q82G, K87D, E94R, H107A, D108R, P124R, D125R, D143R, R148D, L155R, R160D, S164R, S168R, Q181R, P192R, K195D, or H197G. Each mutant protein having a single amino acid residue substitution as described above was transiently expressed in CHO cells and purified using standard immobilized metal affinity chromatography techniques. […] The plates were then washed 3 times with PBST and the exemplified human IL-4Rα antibody was added to the wells at a final concentration of 1 μg/mL in PBS-casein and incubated for 1 hour at room temperature. The plates were washed 3 times with PBST, the IL-4Rα mutant proteins were serially diluted 5-fold from 1 μg/mL for 3 points. in PBS-casein and added to the plate at 50 μL/well and incubated for 1 hour at room temperature. The plates were washed 3 times with PBST and a 1000-fold dilution of anti-histidine tag antibody HRP conjugate (R&D Systems, Cat. #MAB050H) in PBS-casein was added and incubated for 45 minutes at room temperature. The plates were washed 3 times, TMB substrate (Pierce, Cat. #34028) was added per manufacturer instructions, the reaction was quenched with H₂SO₄, and absorbance was read at 450 nm on an ELISA plate reader.
(In general: In an ELISA, binding on a coated surface is turned into a signal by an enzyme label.)

The target of assay [2] is T2, hexahistidine tagged human IL-4Rα ECD L43G (human, UniProt P24394 26-232).
T2 construct: not shown: hexahistidine tag
The description is as above.
Source text: as §1

Assay [3] deals with T3, hexahistidine tagged human IL-4Rα ECD G56R (human, UniProt P24394 26-232).
T3 construct: not shown: hexahistidine tag
The assay is described as above.
Source text: as §1

Assay [4] concerns the target T4, hexahistidine tagged human IL-4Rα ECD K87D (human, UniProt P24394 26-232).
T4 construct: not shown: hexahistidine tag
The description is as above.
Source text: as §1

Assay [5] addresses T5, hexahistidine tagged human IL-4Rα ECD D143R (human, UniProt P24394 26-232).
T5 construct: not shown: hexahistidine tag
The description is as above.
Source text: as §1

In assay [6] the target is T6, human IL-4Rα on cells (human PBMC B cells and CD4+ T cells, Daudi cells, HEK-Blue IL-4/IL-13 cells, myeloid … (human, UniProt P24394 26-825)).
T6 sequence: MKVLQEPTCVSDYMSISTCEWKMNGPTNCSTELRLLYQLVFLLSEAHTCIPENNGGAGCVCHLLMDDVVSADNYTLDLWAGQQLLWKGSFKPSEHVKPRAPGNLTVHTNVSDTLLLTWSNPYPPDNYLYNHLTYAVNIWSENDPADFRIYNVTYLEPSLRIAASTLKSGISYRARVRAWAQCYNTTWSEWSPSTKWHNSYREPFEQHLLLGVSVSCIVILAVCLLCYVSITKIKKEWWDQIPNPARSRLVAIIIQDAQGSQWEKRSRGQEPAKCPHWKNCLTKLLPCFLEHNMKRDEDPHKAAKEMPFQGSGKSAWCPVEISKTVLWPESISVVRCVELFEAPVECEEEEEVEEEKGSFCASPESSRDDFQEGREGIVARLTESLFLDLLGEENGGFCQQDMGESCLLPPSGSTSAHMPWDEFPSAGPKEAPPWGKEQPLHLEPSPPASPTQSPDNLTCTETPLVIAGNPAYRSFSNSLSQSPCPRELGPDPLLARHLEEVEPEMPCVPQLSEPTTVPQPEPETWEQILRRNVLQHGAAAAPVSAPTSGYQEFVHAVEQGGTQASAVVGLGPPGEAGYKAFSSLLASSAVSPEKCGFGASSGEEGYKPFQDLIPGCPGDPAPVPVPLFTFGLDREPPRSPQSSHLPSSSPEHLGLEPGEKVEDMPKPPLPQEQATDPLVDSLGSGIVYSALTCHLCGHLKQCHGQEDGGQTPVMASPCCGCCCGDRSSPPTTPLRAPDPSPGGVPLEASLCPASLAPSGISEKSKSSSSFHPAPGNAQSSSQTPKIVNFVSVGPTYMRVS
Kind of assay: flow cytometry on human PBMCs, CD20 B cells, Alexa Fluor 647 labelled antibody, percent IL-4Rα positive cells. Here is the method: Example 3b. Binding to B cells and T cells: Binding of the exemplified anti-human IL-4Rα antibodies to B cells and T cells was tested in a Fluorescence Activated Cell Sorting (FACS) assay. […] Freshly isolated cells PBMCs were resuspended at 2×10⁶ cells/mL and allowed to rest for 15 minutes at room temperature, then plated at 100 μL/well into a round bottom 96-well plate (COSTAR®) and washed with FACS buffer (PBS containing 2% fetal bovine serum from Corning®). Exemplified anti-human IL-4Rα antibodies and the respective control IgG antibodies conjugated to Alexa Fluor® 647 according to manufacturer's protocol (Thermo Fisher Scientific) were added to the wells at 66.67 nM and diluted 4-fold in duplicate. Equivalent volume of 2× antibody cocktail containing: Human TruStain FcX™. FITC anti-human CD3 Antibody, Alexa Fluor® 700 anti-human CD4 Antibody (all from Biolegend®) and CD20 Monoclonal Antibody (2H7), PerCP-Cyanine5.5 (Thermo Fisher Scientific) was then added to the wells. Cells were incubated at 4° C. for 30 minutes, washed twice with FACS buffer and resuspended in a final volume of 100 μL FACS buffer. Viability dye, Sytox™ blue (Thermo Fisher Scientific), was added and the samples were analyzed via a flow cytometer (LSRFortessa™ X-20; BD BIOSCIENCES). Data analysis was performed using FlowJo software and statistical analysis was performed using GraphPad Prism 9. […]

The target of assay [7] is T6, human IL-4Rα on cells (human PBMC B …). The experiment in a line: cell-based or functional assay.

T1 sequence (P24394 26-232 K47D): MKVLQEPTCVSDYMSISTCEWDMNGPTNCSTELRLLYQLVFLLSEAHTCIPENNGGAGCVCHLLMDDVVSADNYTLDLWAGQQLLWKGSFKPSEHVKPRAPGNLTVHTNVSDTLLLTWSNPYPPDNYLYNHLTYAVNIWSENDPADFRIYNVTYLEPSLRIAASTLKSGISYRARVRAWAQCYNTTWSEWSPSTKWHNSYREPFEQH
T5 sequence (P24394 26-232 D168R): as the sequence (P24394 26-232 K47D) above, with D22K, D143R counted along it
T4 sequence (P24394 26-232 K112D): as the sequence (P24394 26-232 K47D) above, with D22K, K87D counted along it

B1: anti-human IL-4Rα antibody Ab1 (antibody, human IgG4 S228P, kappa)
heavy: QVQLVESGGGLVQPGGSLRLSCVASGFTFSHSSMNWVRQAPGKGLEWVSYISRATGAVYYADSVKGRFTISRDNAKNSLYLQMNSLRDEDTAVYYCAREPVFDYWGQGTLVTVSSASTKGPCVFPLAPCSRSTSESTAALGCLVKDYFPEPVTVSWNSGALTSGVHTFPAVLQSSGLYSLSSVVTVPSSSLGTKTYTCNVDHKPSNTKVDKRVESKYGPPCPPCPAPEFLGGPSVFLFPPKPKDTLMISRTPEVTCVVVDVSQEDPEVKFNWYVDGVEVHNAKTKPREEQFNSTYRVVSVLTVLHQDWLNGKEYKCKVSNKGLPSSIEKTISKAKGQPREPQVYTLPPSREEMTKNQVSLTCLVKGFYPSDICVEWESNGQPENNYKTTPPVLDSDGSFFLYSRLTVDKSRWQQGNVFSCSVMHEALHNHYTQKSLSLSLG
light: DIQMTQSPSAMSASVGDRVTITCRASQDISNYLAWFQQKPGKVPTRLIYAASSLQSGVPSRFSGSGSGTEFTLTISSLQPEDFATYYCLQWSSYPRTFGQGTKVEIKRTVAAPSVFIFPPSDEQLKSGTASVVCLLNNFYPREAKVQWKVDNALQSGNSQESVTEQDSKDSTYSLSSTLTLSKADYEKHKVYACEVTHQGLSSPVTKSFNRGEC
notes: human kappa light chain; also called anti-human IL-4Rα Ab1; unconjugated Ab1
In general, EC50 refers to the concentration giving half of the maximal effect. A low value points to an effect from little substance. Regarding B1, the “ELISA (OD450)” value in assay [1] was 0.593 OD450; in assay [2] it was 1.35 OD450; in assay [3], 1.17 OD450; in assay [4], 0.911 OD450; in assay [5], 1.27 OD450. For the same molecule, a half-maximal effect in assay [6] (EC50) was put at 0.15 nM.

B2: anti-human IL-4Rα Ab1 GC conjugate of Example 1b (n=4) (antibody, human IgG4 S228P, kappa)
heavy: QVQLVESGGGLVQPGGSLRLSCVASGFTFSHSSMNWVRQAPGKGLEWVSYISRATGAVYYADSVKGRFTISRDNAKNSLYLQMNSLRDEDTAVYYCAREPVFDYWGQGTLVTVSSASTKGPCVFPLAPCSRSTSESTAALGCLVKDYFPEPVTVSWNSGALTSGVHTFPAVLQSSGLYSLSSVVTVPSSSLGTKTYTCNVDHKPSNTKVDKRVESKYGPPCPPCPAPEFLGGPSVFLFPPKPKDTLMISRTPEVTCVVVDVSQEDPEVKFNWYVDGVEVHNAKTKPREEQFNSTYRVVSVLTVLHQDWLNGKEYKCKVSNKGLPSSIEKTISKAKGQPREPQVYTLPPSREEMTKNQVSLTCLVKGFYPSDICVEWESNGQPENNYKTTPPVLDSDGSFFLYSRLTVDKSRWQQGNVFSCSVMHEALHNHYTQKSLSLSLG
light: DIQMTQSPSAMSASVGDRVTITCRASQDISNYLAWFQQKPGKVPTRLIYAASSLQSGVPSRFSGSGSGTEFTLTISSLQPEDFATYYCLQWSSYPRTFGQGTKVEIKRTVAAPSVFIFPPSDEQLKSGTASVVCLLNNFYPREAKVQWKVDNALQSGNSQESVTEQDSKDSTYSLSSTLTLSKADYEKHKVYACEVTHQGLSSPVTKSFNRGEC
modifications: glucocorticoid receptor agonist payload-linker (GC-L, Preparation 8) conjugated to the engineered cysteines at the 124 and 378 position of the heavy chain (EU numbering); n is 4 (average DAR 4.17 by RP-HPLC, 3.85 by TOF MS)
As to B2, the “Inhibition of IL-4 induced B cell proliferation, IC50” value in assay [7] is 1.41 nM.
